# Laboratory results from patent publication US20260049160A1 (Hoffmann-La Roche, published 2026).
# Positions count from the first letter of the chain named.
# T1: human VEGF-A-121-His (human, UniProt P15692-9 27-147)
# T1 construct: also called VEFG-A-121-His; not shown: His tag
# T1 sequence (looked up): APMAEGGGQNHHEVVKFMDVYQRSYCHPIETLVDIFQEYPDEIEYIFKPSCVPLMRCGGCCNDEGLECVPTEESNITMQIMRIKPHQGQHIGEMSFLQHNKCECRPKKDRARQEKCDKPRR
# T2: human Ang-2-RBD-Fc (human, UniProt O15123 275-496, limits assumed)
# T2 construct: domain: RBD; not shown: Fc part
# T2 sequence (looked up): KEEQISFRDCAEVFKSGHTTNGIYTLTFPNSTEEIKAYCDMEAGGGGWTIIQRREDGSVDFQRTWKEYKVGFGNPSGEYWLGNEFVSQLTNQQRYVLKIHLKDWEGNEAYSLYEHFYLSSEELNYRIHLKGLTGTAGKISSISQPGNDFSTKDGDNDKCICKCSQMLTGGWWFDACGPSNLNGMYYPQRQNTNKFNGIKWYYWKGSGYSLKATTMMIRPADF
# B1: 2 + 2 PD1TIM3_0359: chimeric PD1-0103/Tim3-0018 (bispecific antibody, human IgG1, kappa, L234A L235A)
# heavy: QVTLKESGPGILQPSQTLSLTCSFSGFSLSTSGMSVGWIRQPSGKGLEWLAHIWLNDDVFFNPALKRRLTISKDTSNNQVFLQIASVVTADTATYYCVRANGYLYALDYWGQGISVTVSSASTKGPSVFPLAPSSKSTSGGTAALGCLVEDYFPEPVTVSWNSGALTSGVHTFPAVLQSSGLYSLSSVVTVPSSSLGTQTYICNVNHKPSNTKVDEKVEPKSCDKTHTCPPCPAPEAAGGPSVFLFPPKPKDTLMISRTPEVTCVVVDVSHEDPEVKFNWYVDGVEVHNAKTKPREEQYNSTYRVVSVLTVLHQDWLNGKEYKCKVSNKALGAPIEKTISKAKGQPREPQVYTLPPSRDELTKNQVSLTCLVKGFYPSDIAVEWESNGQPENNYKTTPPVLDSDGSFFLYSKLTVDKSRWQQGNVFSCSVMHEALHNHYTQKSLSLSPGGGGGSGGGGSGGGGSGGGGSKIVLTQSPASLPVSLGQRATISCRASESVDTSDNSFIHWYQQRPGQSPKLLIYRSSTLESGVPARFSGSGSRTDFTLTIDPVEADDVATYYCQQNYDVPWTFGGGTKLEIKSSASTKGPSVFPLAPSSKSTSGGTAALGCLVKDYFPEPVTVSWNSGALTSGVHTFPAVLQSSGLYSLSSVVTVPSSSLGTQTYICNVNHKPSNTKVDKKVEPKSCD
# light 1: QIVLTQSPAIMSASPGQKVTITCSASSSVNYTQWYQQKLGSSPKLWIYDAFKLAPGVPARFSGSGTGTSYSLTISSMEAEDAASYFCHQWSSYPWTFGGGTKLEIKRTVAAPSVFIFPPSDRKLKSGTASVVCLLNNFYPREAKVQWKVDNALQSGNSQESVTEQDSKDSTYSLSSTLTLSKADYEKHKVYACEVTHQGLSSPVTKSFNRGEC
# light 2: EVILVESGGGLVKPGGSLKLSCAASGFSFSSYTMSWVRQTPEKRLDWVATISGGGRDIYYPDSVKGRFTISRDNAKNTLYLEMSSLMSEDTALYYCVLLTGRVYFALDSWGQGTSVTVSSASVAAPSVFIFPPSDEQLKSGTASVVCLLNNFYPREAKVQWKVDNALQSGNSQESVTEQDSKDSTYSLSSTLTLSKADYEKHKVYACEVTHQGLSSPVTKSFNRGEC
# notes: Tetravalent 2+2 CrossMAb VH-VL with charged substitutions in the CH1/CL interfaces; also called PD1TIM3-0359 (2 + 2)
# B2: Ang2VEGF-0273 (bispecific antibody, human IgG1, kappa)
# light 1: QPGLTQPPSVSVAPGQTARITCGGNNIGSKSVHWYQQKPGQAPVLVVYDDSDRPSGIPERFSGSNSGNTATLTISRVEAGDEADYYCQVWDSSSDHYVFGTGTKVTVLRTVAAPSVFIFPPSDEQLKSGTASVVCLLNNFYPREAKVQWKVDNALQSGNSQESVTEQDSKDSTYSLSSTLTLSKADYEKHKVYACEVTHQGLSSPVTKSFNRGEC
# heavy 1: not shown
# heavy 2: not shown
# light 2: EVQLVESGGGLVQPGGSLRLSCAASGYTFTNYGMNWVRQAPGKGLEWVGWINTYTGEPTYAADFKRRFTFSLDTSKSTAYLQMNSLRAEDTAVYYCAKYPHYYGSSHWYFDVWGQGTLVTVSSASVAAPSVFIFPPSDEQLKSGTASVVCLLNNFYPREAKVQWKVDNALQSGNSQESVTEQDSKDSTYSLSSTLTLSKADYEKHKVYACEVTHQGLSSPVTKSFNRGEC
# notes: Bivalent CrossMab, non-crossed ANG2 arm and VH/VL-crossed VEGF arm; wild type CH1/CL interface (control)
# B3: Ang2VEGF-0283 (bispecific antibody, human IgG1, lambda)
# light 1: QPGLTQPPSVSVAPGQTARITCGGNNIGSKSVHWYQQKPGQAPVLVVYDDSDRPSGIPERFSGSNSGNTATLTISRVEAGDEADYYCQVWDSSSDHYVFGTGTKVTVLGQPKAAPSVTLFPPSSKKLQANKATLVCLISDFYPGAVTVAWKADSSPVKAGVETTTPSKQSNNKYAASSYLSLTPEQWKSHRSYSCQVTHEGSTVEKTVAPTECS
# heavy 1: not shown
# heavy 2: not shown
# light 2: B2 light 2
# notes: Bivalent CrossMab; knobs-into-holes
# B4: Ang2VEGF-0396 (bispecific antibody, human IgG1, kappa)
# light 1: B2 light 1 with Q125K
# heavy 1: not shown
# heavy 2: not shown
# light 2: B2 light 2
# notes: as for B3
# B5: Ang2VEGF-0284 (bispecific antibody, human IgG1, kappa)
# light 1: B2 light 1 with E124K, Q125R
# heavy 1: not shown
# heavy 2: not shown
# light 2: B2 light 2
# notes: as for B3
# B6: Ang2VEGF-0274 (bispecific antibody, human IgG1, kappa)
# light 1: B2 light 1 with E124K, Q125K
# heavy 1: not shown
# heavy 2: not shown
# light 2: B2 light 2
# notes: as for B3
# B7: Ang2VEGF-0286 (bispecific antibody, human IgG1, kappa)
# light 1: B2 light 1 with E124K, Q125K
# heavy 1: not shown
# heavy 2: not shown
# light 2: B2 light 2 with Q140E
# notes: as for B3
# B8: Ang2VEGF-0282 (bispecific antibody, human IgG1, kappa)
# light 1: B2 light 1 with E124K, Q125R
# heavy 1: not shown
# heavy 2: not shown
# light 2: B2 light 2 with Q140E
# notes: as for B3
# B9: Ang2VEGF-0285 (bispecific antibody, human IgG1, kappa)
# light 1: B2 light 1 with E124K, Q125R
# heavy 1: not shown
# heavy 2: not shown
# light 2: B2 light 2 with Q140E
# notes: as for B3
# B10: Ang2VEGF-0394 (bispecific antibody, human IgG1, kappa)
# light 1: B2 light 1 with E124K
# heavy 1: not shown
# heavy 2: not shown
# light 2: B2 light 2
# notes: as for B3
# B11: Ang2VEGF-0397 (bispecific antibody, human IgG1, kappa)
# light 1: B2 light 1 with Q125K
# heavy 1: not shown
# heavy 2: not shown
# light 2: B2 light 2
# notes: as for B3
# B12: Ang2VEGF-0395 (bispecific antibody, human IgG1, kappa)
# light 1: B2 light 1 with E124K
# heavy 1: not shown
# heavy 2: not shown
# light 2: B2 light 2
# notes: as for B3
# B13: DR5TAA-0077 (bispecific antibody, human IgG1, kappa)
# light 1: not shown
# heavy: not shown
# light 2: EIVLTQSPGTLSLSPGERATLSCRASQSVSRSYLAWYQQKPGQAPRLLIIGASTRATGIPDRFSGSGSGTDFTLTISRLEPEDFAVYYCQQGQVIPPTFGQGTKVEIKRTVAAPSVFIFPPSDEQLKSGTASVVCLLNNFYPREAKVQWKVDNALQSGNSQESVTEQDSKDSTYSLSSTLTLSKADYEKHKVYACEVTHQGLSSPVTKSFNRGEC
# notes: Tetravalent 2+2: DR5 core antibody (VH/VL crossover on DR5) with two FAP Fabs fused to the HC C-termini; wild type CH1/CL interface; also called DR5TAA-0077 (control)
# B14: DR5TAA-0081 (bispecific antibody, human IgG1, kappa, L234A L235A)
# light 1: EVQLLESGGGLVQPGGSLRLSCAASGFTFSSHAMSWVRQAPGKGLEWVSAIWASGEQYYADSVKGRFTISRDNSKNTLYLQMNSLRAEDTAVYYCAKGWLGNFDYWGQGTLVTVSSASVAAPSVFIFPPSDEQLKSGTASVVCLLNNFYPREAKVQWKVDNALQSGNSQESVTEQDSKDSTYSLSSTLTLSKADYEKHKVYACEVTHQGLSSPVTKSFNRGEC
# heavy: not shown
# light 2: B13 light 2 with R31S, I50Y, T54S, Q93T, V94T, I95H, P97I
# notes: Tetravalent 2+2: DR5 core antibody with two VH/VL-crossed FAP Fabs fused to the HC C-termini; wild type CH1/CL interface; the set of three chains is the same; also called DR5TAA-0081 (control)
# B15: DR5TAA-0083 (bispecific antibody, human IgG1, kappa, L234A L235A)
# light 1: not shown
# heavy: not shown
# light 2: B13 light 2 with E124R, Q125K
# notes: Tetravalent 2+2, VH/VL crossover on DR5
# B16: DR5TAA-0078 (bispecific antibody)
# light 1: EIVLTQSPGTLSLSPGERATLSCRASQSVSSSYLAWYQQKPGQAPRLLIYGASSRATGIPDRFSGSGSGTDFTLTISRLEPEDFAVYYCQQGTTHPITFGQGTKVEIKSSASTKGPSVFPLAPSSKSTSGGTAALGCLVKDYFPEPVTVSWNSGALTSGVHTFPAVLQSSGLYSLSSVVTVPSSSLGTQTYICNVNHKPSNTKVDKKVEPKSCD
# heavy: not shown
# light 2: B13 light 2
# notes: Tetravalent 2+2: DR5 core antibody with CH1-CL crossover on DR5 (instead of VH/VL), two FAP Fabs fused to the HC C-termini; wild type CH1/CL interface; also called DR5TAA-0078 (control)
# B17: DR5TAA-0082 (bispecific antibody, human IgG1, kappa, L234A L235A)
# light 1: B13 light 2 with R31S, I50Y, T54S, Q93T, V94T, I95H, P97I, E124R, Q125K
# heavy: not shown
# light 2: B14 light 1 with Q133E
# notes: Tetravalent 2+2, VH/VL crossover on FAP
# B18: Chimeric TIM3-0018 (antibody, V domains shown)
# VH: QVTLKESGPGILQPSQTLSLTCSFSGFSLSTSGMSVGWIRQPSGKGLEWLAHIWLNDDVFFNPALKRRLTISKDTSNNQVFLQIASVVTADTATYYCVRANGYLYALDYWGQGISVTVSS
# VL: QIVLTQSPAIMSASPGQKVTITCSASSSVNYTQWYQQKLGSSPKLWIYDAFKLAPGVPARFSGSGTGTSYSLTISSMEAEDAASYFCHQWSSYPWTFGGGTKLEIK
# notes: Bivalent IgG; also called TIM3 IgG (bivalent); copies: 2 + 2
# B19: 2 + 2 PD1TIM3_0358: chimeric PD1-0103/Tim3-0028 (bispecific antibody, human IgG1, kappa, L234A L235A)
# heavy: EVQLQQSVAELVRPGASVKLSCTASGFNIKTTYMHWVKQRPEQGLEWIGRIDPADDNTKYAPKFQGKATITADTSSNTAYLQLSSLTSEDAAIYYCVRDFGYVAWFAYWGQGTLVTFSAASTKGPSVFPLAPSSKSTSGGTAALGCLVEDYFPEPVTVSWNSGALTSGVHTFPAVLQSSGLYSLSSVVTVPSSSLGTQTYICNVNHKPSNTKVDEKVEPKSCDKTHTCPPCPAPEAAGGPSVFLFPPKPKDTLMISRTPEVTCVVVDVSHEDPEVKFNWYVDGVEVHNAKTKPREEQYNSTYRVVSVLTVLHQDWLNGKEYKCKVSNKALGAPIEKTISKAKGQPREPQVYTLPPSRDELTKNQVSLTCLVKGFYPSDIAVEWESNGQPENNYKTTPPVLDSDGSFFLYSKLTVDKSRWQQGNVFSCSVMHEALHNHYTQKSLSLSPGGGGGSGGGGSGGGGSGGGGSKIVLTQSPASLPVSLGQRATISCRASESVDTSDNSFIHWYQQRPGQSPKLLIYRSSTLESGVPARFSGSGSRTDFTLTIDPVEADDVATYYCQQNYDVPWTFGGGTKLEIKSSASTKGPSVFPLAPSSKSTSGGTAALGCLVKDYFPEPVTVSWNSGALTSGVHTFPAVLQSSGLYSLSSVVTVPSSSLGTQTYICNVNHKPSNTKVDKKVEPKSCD
# light 1: NIVMTPTPKFLPVSSGDRVTMTCRASQSVDNYVAWYQQKPGQSPKLLIYYASNRYIGVPDRFTGSGSGTDFTFTISSVQVEDLAVYFCQQHYSSPYTFGSGTKLEIKRTVAAPSVFIFPPSDRKLKSGTASVVCLLNNFYPREAKVQWKVDNALQSGNSQESVTEQDSKDSTYSLSSTLTLSKADYEKHKVYACEVTHQG
# light 2: B1 light 2
# notes: Tetravalent 2+2 CrossMAb VH-VL with charged substitutions in the CH1/CL interfaces; also called PD1TIM3-0358 (2 + 2)
# B20: Chimeric TIM3-0028 (antibody, V domains shown)
# VH: EVQLQQSVAELVRPGASVKLSCTASGFNIKTTYMHWVKQRPEQGLEWIGRIDPADDNTKYAPKFQGKATITADTSSNTAYLQLSSLTSEDAAIYYCVRDFGYVAWFAYWGQGTLVTFSA
# VL: NIVMTPTPKFLPVSSGDRVTMTCRASQSVDNYVAWYQQKPGQSPKLLIYYASNRYIGVPDRFTGSGSGTDFTFTISSVQVEDLAVYFCQQHYSSPYTFGSGTKLEIK
# notes: as for B18
# Target: T3, human Tim3-ECD (human, UniProt Q8TDQ0 22-202)
# T3 construct: extracellular domain; Analyte of the Biacore assay; also called hu Tim3-ECD
# Experiment: SPR (Biacore T200), antibody captured via anti-human Fab IgG, human Tim3-ECD in solution, 1:1 Langmuir
# Method: (§1) The sample and running buffer was HBS-EP+ (0.01 M HEPES, 0.15 M NaCl, 3 mM EDTA, 0.05% v/v Surfactant P20, pH 7.4). Flow cell temperature was set to 25° C. and sample compartment temperature to 12° C. The system was primed with running buffer.
# (§2) Different samples were injected for 30 seconds with a concentration of 10 nM and bound consecutively to the flow cells 2, 3 and 4. […] Finally the double referenced data was fitted to a 1:1 langmuir interaction model with the Biacore™ T200 Evaluation Software.
row,Binder,Kd
1,B1,0.3 nM

# Target: T1, human VEGF-A-121-His
# Experiment: SPR (Biacore T200), VEGF-A-121-His captured via anti-His, antibody in solution, 1:1 Langmuir
# Method: HBS-N (10 mM HEPES, 150 mM NaCl pH 7.4, GE Healthcare) was used as running buffer during the immobilization procedure. For the following kinetic characterization, sample and running buffer was PBS-T (10 mM phosphate buffered saline including 0.05% Tween® 20) at pH 7.4. The flow cell was set to 25° C.—and the sample block set to 12° C.—and primed with running buffer twice prior to kinetic characterization.
# The association was measured by injection of the indicated antibodies in various concentrations in solution for 180 sec at a flow of 30 μl/min starting with 1000 nM in 1:3 serial dilutions. The dissociation phase was monitored for up to 600 sec and triggered by switching from the sample solution to running buffer. The surface was regenerated by 60 sec washing with a Glycine pH 1.5 solution at a flow rate of 30 μl/min. Bulk refractive index differences were corrected by subtracting the response obtained from a anti His antibody surface. Blank injections are also subtracted (=double referencing). For calculation of KD and other kinetic parameters the Langmuir 1:1 model was used.
row,Binder,Kd
1,B2,6 nM
2,B3,4 nM
3,B4,3 nM
4,B5,4 nM
5,B6,3 nM
6,B7,4 nM
7,B8,4 nM
8,B9,4 nM
9,B10,3 nM
10,B11,4 nM
11,B12,4 nM

# Target: T4, human FAP (human, UniProt Q12884 26-760)
# T4 construct: also called hFAP
# T4 sequence (Q12884 26-760 limits assumed): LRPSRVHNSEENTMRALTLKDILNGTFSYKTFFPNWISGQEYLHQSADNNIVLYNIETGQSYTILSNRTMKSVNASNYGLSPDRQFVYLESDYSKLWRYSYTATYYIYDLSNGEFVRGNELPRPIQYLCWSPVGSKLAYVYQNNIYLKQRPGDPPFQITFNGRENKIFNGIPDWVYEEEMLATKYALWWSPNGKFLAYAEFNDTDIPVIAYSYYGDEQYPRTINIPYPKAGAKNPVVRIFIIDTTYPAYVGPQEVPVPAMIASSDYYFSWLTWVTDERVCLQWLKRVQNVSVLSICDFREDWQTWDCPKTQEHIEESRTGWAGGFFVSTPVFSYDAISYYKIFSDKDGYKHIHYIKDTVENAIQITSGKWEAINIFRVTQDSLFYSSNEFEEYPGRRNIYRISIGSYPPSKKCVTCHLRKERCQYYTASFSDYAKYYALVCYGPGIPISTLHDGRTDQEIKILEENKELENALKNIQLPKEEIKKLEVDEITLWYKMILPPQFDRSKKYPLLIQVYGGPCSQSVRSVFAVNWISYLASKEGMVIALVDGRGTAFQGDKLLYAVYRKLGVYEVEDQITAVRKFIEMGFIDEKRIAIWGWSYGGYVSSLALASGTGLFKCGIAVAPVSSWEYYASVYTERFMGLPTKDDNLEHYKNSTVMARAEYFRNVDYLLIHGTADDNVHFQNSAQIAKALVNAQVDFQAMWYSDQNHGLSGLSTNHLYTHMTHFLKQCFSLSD
# Experiment: SPR (Biacore), antibody captured via anti-human IgG Fc, 5 ug/ml human FAP injected alone for 180 s
# From the text: Therefore a <Fc> capturing IgG is immobilized on the chip surface and the different DR5TAA CrossMAbs is captured. In the experiment the targets DR5 and FAP were either added individually or simultaneously to the captured CrossMAb.
row,Binder,FAP signal [RU max]
1,B13,41.9 RU
2,B14,7.2 RU
3,B15,18.5 RU
4,B16,38.4 RU
5,B17,7.4 RU

# Target: T5, biotinylated Tim3-ECD-AviHis (human, UniProt Q8TDQ0 22-202, biotinylated (Avi tag))
# T5 construct: extracellular domain; also called huTIM3; hu Tim3; not shown: Avi and His tags
# Experiment: ELISA, biotinylated Tim3-ECD-AviHis on streptavidin plates
row,Binder,EC50
1,B18,0.15 nM
2,B1,0.11 nM
3,B19,0.19 nM

# Target: T3, human Tim3-ECD
# Experiment: SPR (Biacore T200), antibody captured via anti-human Fab IgG, human Tim3-ECD in solution, 1:1 Langmuir; 2 + 2 bispecific format, Tim3-arm
# Method: as §1, §2
row,Binder,Kd
1,B19,2.2 nM

# Target: T6, biotinylated PD1-ECD-AviHis (human, UniProt Q15116 25-170, biotinylated (Avi tag))
# T6 construct: extracellular domain; also called huPD1; hu PD1; not shown: Avi and His tags
# Experiment: ELISA, biotinylated PD1-ECD-AviHis on streptavidin plates
row,Binder,EC50
1,B1,0.09 nM
2,B19,0.08 nM

# Target: T2, human Ang-2-RBD-Fc
# Experiment: SPR (Biacore T200), antibody captured via anti-human F(ab')2, Ang2-RBD-Fc in solution, apparent KD, 1:1 Langmuir
# Method: Binding of indicated antibodies to human Ang-2-RBD-Fc was investigated by surface plasmon resonance using a BIACORE™ T200 instrument (GE Healthcare). […] HBS-N (10 mM HEPES, 150 mM NaCl pH 7.4, GE Healthcare) was used as running buffer during the immobilization procedure. For the following kinetic characterization, sample and running buffer was PBS-T (10 mM phosphate buffered saline including 0.05% Tween® 20) at pH 7.4. The flow cell was set to 25° C.—and the sample block set to 12° C.—and primed with running buffer twice prior to kinetic characterization.
# The bispecific antibody was captured by injecting a 5 nM solution for 25 sec at a flow of 5 μl/min. The association was measured by injection of human Ang2-RBD-Fc in various concentrations in solution for 120 sec at a flow of 30 μl/min starting with 100 nM in 1:3 serial dilutions. The dissociation phase was monitored for up to 180 sec and triggered by switching from the sample solution to running buffer. The surface was regenerated by 60 sec washing with a Glycine pH 2.1 solution at a flow rate of 30 μl/min. Bulk refractive index differences were corrected by subtracting the response obtained from a goat anti human F(ab′)₂ surface. Blank injections are also subtracted (=double referencing). For calculation of apparent KD the Langmuir 1:1 model was used.
row,Binder,Kd
1,B2,15 nM
2,B3,15 nM
3,B4,17 nM
4,B5,13 nM
5,B6,17 nM
6,B7,12 nM
7,B8,14 nM
8,B9,14 nM
9,B10,12 nM
10,B11,14 nM
11,B12,15 nM

# Target: T7, human PD1-ECD (human, UniProt Q15116 25-170)
# T7 construct: extracellular domain; Analyte of the Biacore assay; also called hu PD1-ECD
# Experiment: SPR (Biacore T200), antibody captured via anti-human Fc IgG, human PD1-ECD in solution, 1:1 Langmuir
# Method: Different samples were injected for 15 seconds with a concentration of 10 nM and consecutively bound to the flow cells 2, 3 and 4. […] Finally the double referenced data was fitted to a 1:1 langmuir interaction model with the Biacore™ T200 Evaluation Software.
row,Binder,Kd
1,B1,1.9 nM

# Target: T6, biotinylated PD1-ECD-AviHis
# Experiment: ELISA on biotinylated PD1-ECD-AviHis
# Method: After washing (3×90 μl/well with PBST-buffer) 25 μl anti PD1 antibody samples were added in increasing concentrations and incubated 1h at RT. After washing (3×90 μl/well with PBST-buffer) 25 μl/well goat-anti-human H+L-POD (JIR, JIR109-036-098) was added in 1:5000 dilution and incubated at RT for 1 h on a shaker.
row,Binder,binding result
1,B18,no binding
2,B20,no binding
